Measurements: paper PMC9770967, “Native holdup (nHU) to measure binding affinities from cell extracts” (Science Advances, 2022)

Assays:
Format in all cases: binding, human
full-length SNX27 = assay: nHU-MS, recombinant full-length SNX27 bait, total Jurkat extracts; conditions: apparent, Fig. 4D, n = 6
Protocol: (§1) The empty His6-AviTag-MBP-TEV vector was used to produce biotinylated MBP for control experiments. Proteins were coexpressed with BirA biotin ligase (PET21a-BirA, Addgene, no. 20857) in Escherichia coli BL21(DE3) cells. At isopropyl-β-D-thiogalactopyranoside (IPTG) induction (1 mM IPTG at 18°C overnight), 50 μM biotin was added to the media. Harvested cells were lysed in a buffer containing 50 mM tris (pH 7.5), 150 to 300 mM NaCl, 50 μM biotin, 2 mM β-mercaptoethanol, cOmplete EDTA-free protease inhibitor cocktail (Roche, Basel, Switzerland), 1% Triton X-100, and trace amount of deoxyribonuclease, ribonuclease, and lysozyme. Lysates were frozen at −20°C before further purification steps. Lysates were sonicated and centrifuged for clarification. Expressed proteins were captured on in-house prepacked Ni-IDA (Protino Ni-IDA Resin, Macherey-Nagel, Duren, Germany) columns and were washed with at least 10 column volumes of cold wash buffer [50 mM tris (pH 7.5), 150 mM NaCl, and 2 mM β-mercaptoethanol] before elution with 250 mM imidazole. The Ni elution was collected directly on a preequilibrated amylose column (amylose high flow resin, New England Biolabs, Ipswich, MA). Amylose column was washed with 5 column volumes of cold wash buffer before fractionated elution in a buffer containing 25 mM Hepes (pH 7.5), 150 mM NaCl, 1 mM TCEP, 10% glycerol, 5 mM maltose, and cOmplete EDTA-free protease inhibitor cocktail. The concentration of proteins was determined by their ultraviolet absorption at 280 nm before aliquots were snap-frozen in liquid nitrogen and stored at −80°C.
(§2) For saturating streptavidin resin with biotinylated peptides or biotin, 50 μl of streptavidin resin was mixed with biotin or peptide at 40 to 60 μM concentration in 6 to 6.5 resin volume for 60 min. To saturate streptavidin resin with biotinylated proteins, 50 μl of streptavidin resin (Streptavidin Sepharose High Performance, Cytiva) was mixed with biotinylated MBP or MBP-PDZ at 40 to 50 μM concentration in 20× resin volume for 60 min. After saturation, resins were washed a single time [10 resin volume, holdup buffer: 50 mM tris (pH 7.5), 300 mM NaCl, and 1 mM TCEP, 0.22-μm filtered] and were depleted with biotin (10 resin volume, 10 min, holdup buffer supplemented with 100 μM biotin). Last, resins were washed two times (10 resin volume, holdup buffer).
(§3) For single-point nHU experiments carried out at ~10 μM bait concentration, 50 μl of saturated streptavidin resin was mixed with 200 μl of cell lysate (2 mg/ml). Titration experiments were carried out by mixing control and bait-saturated resin and keeping the total resin volume constant; e.g., ~5 μM bait concentration can be achieved by mixing 25 μl of bait-saturated streptavidin resin with 25 μl of control resin and 200 μl of cell lysate (2 mg/ml). Control and bait-saturated resins were prepared in larger amounts, and a serial dilution was prepared with these presaturated resins to achieve different resin ratios.
Unless specified elswhere, the nHU mixture was incubated at 4°C for 2 hours. After the incubation ended, the resin was separated from the supernatant by a brief centrifugation (15 s, 2000 g). Then, half of the supernatant was removed by pipetting without any delay to avoid any resin contamination; e.g., 100 μl of supernatant is collected if 200 μl of cell lysate was used as analyte. Alternatively, the supernatant can be centrifuged an additional time to clarify it further, removing any possible resin contamination. […]

SNX27_PDZ [1] = assay: AP-MS control pull-down on leftover resin, SNX27_PDZ bait, total Jurkat extracts; conditions: AP-MS control pull-down, total Jurkat extract
Protocol: Leftover beads from nHU-MS experiments were washed three times immediately after the separation of the supernatant [10 resin volume in buffer containing 50 mM tris (pH 8.5), 150 mM NaCl, 1% Triton X-100, 10× cOmplete EDTA-free protease inhibitor cocktail, 2 mM EDTA, and 1 mM TCEP]. Then, the beads were washed two times [10 resin volume buffer containing 50 mM tris (pH 8.5), 150 mM NaCl, and 1 mM TCEP]. Last, captured protein was eluted from the resin in two steps, and the eluted fractions were pooled. For each elution, the beads were incubated for 30 min with three resin volume buffer containing 20 mM tris (pH 8.5), 100 mM NaCl, 500 μM TCEP, and 8 M urea. Between each step, the beads were separated by mild centrifugation, and the supernatant was removed by gentle pipetting.
The nHU samples were precipitated with trichloroacetic acid (TCA) 20% overnight at 4°C and centrifuged at 14,000 rpm for 10 min at 4°C. The protein pellets were washed twice with 1 ml of cold acetone and air-dried. The protein extracts were solubilized in 8 M urea, reduced with 5 mM TCEP for 30 min, and alkylated with 10 mM iodoacetamide for 30 min in the dark. Double digestion was performed at 37°C with 500 ng of endoproteinase Lys-C (Wako, Richmond, USA) for 4 hours, followed by fourfold dilution and an overnight digestion with 500 ng of trypsin (Promega, Charbonnieres les Bains, France). Peptide mixtures were then desalted on a C18 spin-column and dried on a speed vacuum.
Samples were analyzed using an Ultimate 3000 nano-RSLC coupled in line via a nano-electrospray ionization source, with an LTQ-Orbitrap ELITE mass spectrometer (Thermo Fisher Scientific, San Jose, CA) or with the Orbitrap Exploris 480 mass spectrometer (Thermo Fisher Scientific, Bremen, Germany) equipped with a high field asymmetric ion mobility spectrometry (FAIMS) module. Peptide mixtures were injected in 0.1% trifluoroacetic acid on a C18 Acclaim PepMap100 trap column [75 μm inner diameter (ID) × 2 cm, 3 μm, 100 Å, Thermo Fisher Scientific] for 3 min at 5 μl/min with 2% acetonitrile (ACN) and 0.1% formic acid (FA) in H2O and then separated on a C18 Acclaim PepMap100 nano-column (75 μm ID × 50 cm, 2.6 μm, 150 Å, Thermo Fisher Scientific) at 300 nl/min and 40°C with a 90-min linear gradient from 5 to 30% buffer B (A: 0.1% FA in H2O/B: 80% ACN, 0.1% FA in H2O) and regeneration at 5% B. Spray voltage was set to 2.1 kV and heated capillary temperature was set to 280°C.
For the Orbitrap Elite, the mass spectrometer was operated in positive ionization mode in data-dependent mode with survey scans from mass/charge ratio (m/z) 350 to 1500 acquired in the Orbitrap at a resolution of 120,000 at m/z 400. The 20 most intense peaks from survey scans were selected for further fragmentation in the linear ion trap with an isolation window of 2.0 Da and were fragmented by collision-induced dissociation (CID) with a normalized collision energy of 35% (TOP 20 CID method). Unassigned and single-charged states were excluded from fragmentation. The ion target value for the survey scans (in the Orbitrap) and the MS2 mode (in the linear ion trap) were set to 1E6 and 5E3, respectively, and the maximum injection time was set to 100 ms for both scan modes. Dynamic exclusion was set to 20 s after one repeat count with mass width at ±10 parts per million (ppm).
Proteins were identified by database search using SequestHT (Thermo Fisher Scientific) with Proteome Discoverer 2.4 software (PD2.4, Thermo Fisher Scientific) on the human FASTA database downloaded from UniProt (reviewed, release 2021_06_03, 20380 entries, https://uniprot.org/, complemented with sequences of likely contaminants, such as MBP, streptavidin, or trypsin). Precursor and fragment mass tolerances were set at 7 ppm and 0.6 Da, respectively, and up to two missed cleavages were allowed. […]

SNX27_PDZ [2] = assay: nHU-MS, SNX27_PDZ bait, total Jurkat extracts, series 1; conditions: nHU-MS, total Jurkat extract
Protocol: as §1, §2, §3
Unless specified elswhere, the nHU mixture was incubated at 4°C for 2 hours. After the incubation ended, the resin was separated from the supernatant by a brief centrifugation (15 s, 2000 g). Then, half of the supernatant was removed by pipetting without any delay to avoid any resin contamination; e.g., 100 μl of supernatant is collected if 200 μl of cell lysate was used as analyte. Alternatively, the supernatant can be centrifuged an additional time to clarify it further, removing any possible resin contamination. In principle, the separation of the supernatant should be as fast as possible since any delay can perturb the equilibrium. […] Alternatively, the resin can be separated from the supernatant using filter plates (e.g., various products of Millipore, Burlington, MA) or spin columns (e.g., Pierce spin cups—cellulose acetate filter from Thermo Fisher Scientific, Waltham, MA) to achieve faster separation. […]

B1: SNX2: component of the SNX-BAR complex (protein, UniProt O60749 1-519, looked up)
Sorting nexin-2: MAAEREPPPLGDGKPTDFEDLEDGEDLFTSTVSTLESSPSSPEPASLPAEDISANSNGPKPTEVVLDDDREDLFAEATEEVSLDSPEREPILSSEPSPAVTPVTPTTLIAPRIESKSMSAPVIFDRSREEIEEEANGDIFDIEIGVSDPEKVGDGMNAYMAYRVTTKTSLSMFSKSEFSVKRRFSDFLGLHSKLASKYLHVGYIVPPAPEKSIVGMTKVKVGKEDSSSTEFVEKRRAALERYLQRTVKHPTLLQDPDLRQFLESSELPRAVNTQALSGAGILRMVNKAADAVNKMTIKMNESDAWFEEKQQQFENLDQQLRKLHVSVEALVCHRKELSANTAAFAKSAAMLGNSEDHTALSRALSQLAEVEEKIDQLHQEQAFADFYMFSELLSDYIRLIAAVKGVFDHRMKCWQKWEDAQITLLKKREAEAKMMVANKPDKIQQAKNEIREWEAKVQQGERDFEQISKTIRKEVGRFEKERVKDFKTVIIKYLESLVQTQQQLIKYWEAFLPEAKAIA
full-length SNX27
  pKapp: 5.04

B2: SNX5: component of the SNX-BAR complex (protein, UniProt Q9Y5X3 2-404, looked up)
Sorting nexin-5: AAVPELLQQQEEDRSKLRSVSVDLNVDPSLQIDIPDALSERDKVKFTVHTKTTLPTFQSPEFSVTRQHEDFVWLHDTLIETTDYAGLIIPPAPTKPDFDGPREKMQKLGEGEGSMTKEEFAKMKQELEAEYLAVFKKTVSSHEVFLQRLSSHPVLSKDRNFHVFLEYDQDLSVRRKNTKEMFGGFFKSVVKSADEVLFTGVKEVDDFFEQEKNFLINYYNRIKDSCVKADKMTRSHKNVADDYIHTAACLHSLALEEPTVIKKYLLKVAELFEKLRKVEGRVSSDEDLKLTELLRYYMLNIEAAKDLLYRRTKALIDYENSNKALDKARLKSKDVKLAEAHQQECCQKFEQLSESAKEELINFKRKRVAAFRKNLIEMSELEIKHARNNVSLLQSCIDLFKNN
full-length SNX27
  pKapp: 5.23

B3: ZC3HAV1 (protein, UniProt Q7Z2W4 2-902, looked up)
Zinc finger CCCH-type …: ADPEVCCFITKILCAHGGRMALDALLQEIALSEPQLCEVLQVAGPDRFVVLETGGEAGITRSVVATTRARVCRRKYCQRPCDNLHLCKLNLLGRCNYSQSERNLCKYSHEVLSEENFKVLKNHELSGLNKEELAVLLLQSDPFFMPEICKSYKGEGRQQICNQQPPCSRLHICDHFTRGNCRFPNCLRSHNLMDRKVLAIMREHGLNPDVVQNIQDICNSKHMQKNPPGPRAPSSHRRNMAYRARSKSRDRFFQGSQEFLASASASAERSCTPSPDQISHRASLEDAPVDDLTRKFTYLGSQDRARPPSGSSKATDLGGTSQAGTSQRFLENGSQEDLLHGNPGSTYLASNSTSAPNWKSLTSWTNDQGARRKTVFSPTLPAARSSLGSLQTPEAVTTRKGTGLLSSDYRIINGKSGTQDIQPGPLFNNNADGVATDITSTRSLNYKSTSSGHREISSPRIQDAGPASRDVQATGRIADDADPRVALVNDSLSDVTSTTSSRVDDHDSEEICLDHLCKGCPLNGSCSKVHFHLPYRWQMLIGKTWTDFEHMETIEKGYCNPGIHLCSVGSYTINFRVMSCDSFPIRRLSTPSSVTKPANSVFTTKWIWYWKNESGTWIQYGEEKDKRKNSNVDSSYLESLYQSCPRGVVPFQAGSRNYELSFQGMIQTNIASKTQKDVIRRPTFVPQWYVQQMKRGPDHQPAKTSSVSLTATFRPQEDFCFLSSKKYKLSEIHHLHPEYVRVSEHFKASMKNFKIEKIKKIENSELLDKFTWKKSQMKEEGKLLFYATSRAYVESICSNNFDSFLHETHENKYGKGIYFAKDAIYSHKNCPYDAKNVVMFVAQVLVGKFTEGNITYTSPPPQFDSCVDTRSNPSVFVIFQKDQVYPQYVIEYTEDKACVIS
SNX27_PDZ [1]; SNX27/MBP
  Ratio_AP: 128.984
SNX27_PDZ [1]; SNX27 vs MBP
  FC_AP: 7.011
SNX27_PDZ [1]; BINDS / DOES NOT BIND
  BINDER_AP: BINDS
SNX27_PDZ [2]; SNX27/MBP, sheet "SNX27&Jurkat"
  Ratio_HU: 0.6368
SNX27_PDZ [2]; SNX27 bait vs MBP control, sheet "SNX27&Jurkat"
  BI_HU: 0.3632
SNX27_PDZ [2]; SNX27 bait, not filtered for significance
  pKapp_HU_not_filtered: 4.758
SNX27_PDZ [2]; SNX27 vs MBP control, sheet "SNX27&Jurkat"
  FC_HU: -0.651
